Reference: the supplement of paper PMC7877785
± gives the uncertainty stated by the source.

Experiment: self-splicing fitness, log relative to wild type (ln ratio); higher = more splicing; Tetrahymena group I intron in knt gene, E. coli kanamycin selection, DiMSum; sequences stand for … in CUCUCU…GGAGGGAAAAGUUAUCAGGCAUGCACCUGGUAGCUAGUCUUUAAACCAAUAGAUUGCAUCGGUUUAAAAGGCAAGACCGUCAAAUUGCGGGAAAGGGGUCAACAGCCGUUCAGUACCAAGUCUCAGGGGAAACUUUGAGAUGGCCUUGCAAAGGGUAUGGUAAUAAGCUGACGGACAUGGUCCUAACCACGCAGCCAAGUCCUAAGUCAACAGAUCUUCUGUUGAUAUGGAUGCAGUUCACAGACUAAAUGUCGGUCGGGGAAGAUGUAUUCUUCUCAUAAGAUAUAGUCGGACCUCUCCUUAAUGGGAGCUAGCGGAUGAAGUGAUGCAACACUGGAGCCGCUGGGAACUAAUUUGUAUGCGAAAGUAUAUUGAUUAGUUUUGGAGUACUCGUGGUCG
Summary of the method: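 Fitness was computed with DiMSum as the error-weighted combination of replicate fold changes, kanamycin versus none, each normalised to wild type. The library randomised all eight intron nucleotides of the P1ex region, with the intron placed in the knt kanamycin-resistance gene on pET-22b(+) in E. coli BL21(DE3). Six replicate transformations were grown overnight at 37°C or 30°C on LB agar with or without 25 μg/mL kanamycin, plus 100 μg/mL carbenicillin, 50 μM IPTG and 0.2% rhamnose. Pooled colonies were amplicon-sequenced on an Illumina HiSeq 2500.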

Sequence	self-splicing fitness (ln) (30 °C)	self-splicing fitness (ln) (37 °C)
AACCAGCAAUAUUACGUGCG	-0.832 ± 0.053	-0.365 ± 0.064
AACCAGCAAUAUUACGUUAG	-3.68 ± 0.11	-2.44 ± 0.11
AACCAGCAAUAUUACGUUUU	-2.11 ± 0.057	-1.27 ± 0.065
AACGAGCAAUAUUACGACAG	–	-2.37 ± 0.28
AACGAGCAAUAUUACGACCU	-1.02 ± 0.22	-0.178 ± 0.2
AACGAGCAAUAUUACGACUU	-0.000737 ± 0.11	-0.7 ± 0.12
AACGAGCAAUAUUACGAGAG	-3.41 ± 0.15	-1.98 ± 0.16
AACGAGCAAUAUUACGAGCA	-2.69 ± 0.18	-1.97 ± 0.22
AACGAGCAAUAUUACGAGCG	-2.76 ± 0.19	-2.55 ± 0.2
AACGAGCAAUAUUACGAGGC	-2.92 ± 0.29	-2.97 ± 0.48
AACGAGCAAUAUUACGAGUG	-1.64 ± 0.097	-0.602 ± 0.12
AACGAGCAAUAUUACGAUUA	-1.89 ± 0.16	-1.02 ± 0.16
AACGAGCAAUAUUACGCGAG	-2.75 ± 0.24	-2.61 ± 0.25
AACGAGCAAUAUUACGCGUG	-1.89 ± 0.094	-1.12 ± 0.099
AACGAGCAAUAUUACGCUGC	-3.01 ± 0.26	-3.06 ± 0.35
AACGAGCAAUAUUACGGAGA	-3.61 ± 0.26	-2.8 ± 0.28
AACGAGCAAUAUUACGGGCU	-3.63 ± 0.23	-2.49 ± 0.22
AACGAGCAAUAUUACGGGUC	-3.17 ± 0.22	-1.65 ± 0.2
AACGAGCAAUAUUACGGUAU	-4.43 ± 0.22	-1.85 ± 0.12
AACGAGCAAUAUUACGGUUG	-3.98 ± 0.15	-2.37 ± 0.13
AACGAGCAAUAUUACGUACC	-2.91 ± 0.23	-1.9 ± 0.2
AACGAGCAAUAUUACGUAGG	-3.93 ± 0.21	-2.49 ± 0.18
AACGAGCAAUAUUACGUAUC	-3.69 ± 0.4	-3.55 ± 0.46
AACGAGCAAUAUUACGUCAG	-3.08 ± 0.29	-2.97 ± 0.34
AACGAGCAAUAUUACGUUAC	-3.45 ± 0.29	-0.155 ± 0.15

Sequence	self-splicing fitness (ln) (30 °C)	self-splicing fitness (ln) (37 °C)
AACGAGCAAUAUUACGUUGA	-3.48 ± 0.21	-3.32 ± 0.22
AACGAGCAAUAUUACGUUUG	-3.6 ± 0.2	-2.45 ± 0.28
AACUAGCAAUAUUACGACAG	-1.7 ± 0.14	-0.514 ± 0.13
AACUAGCAAUAUUACGACCC	–	-0.568 ± 0.41
AACUAGCAAUAUUACGAGCU	-1.5 ± 0.095	-0.511 ± 0.11
AACUAGCAAUAUUACGAGUA	-0.62 ± 0.07	-0.322 ± 0.083
AACUAGCAAUAUUACGAUAC	-3.15 ± 0.23	-1.24 ± 0.34
AACUAGCAAUAUUACGAUUC	-1.81 ± 0.094	-0.882 ± 0.11
AACUAGCAAUAUUACGCCGC	-2.1 ± 0.23	–
AACUAGCAAUAUUACGCGCG	-0.639 ± 0.082	-0.378 ± 0.12
AACUAGCAAUAUUACGCGGU	-4.59 ± 0.29	-0.982 ± 0.17
AACUAGCAAUAUUACGCUAC	-3.46 ± 0.22	-1.34 ± 0.14
AACUAGCAAUAUUACGCUCG	-0.797 ± 0.1	-0.51 ± 0.13
AACUAGCAAUAUUACGGCGC	-0.8 ± 0.13	-0.34 ± 0.16
AACUAGCAAUAUUACGGCUA	-1.08 ± 0.11	-1.22 ± 0.11
AACUAGCAAUAUUACGGCUU	0.0162 ± 0.065	-0.0298 ± 0.091
AACUAGCAAUAUUACGGGUG	-0.377 ± 0.049	-0.0736 ± 0.07
AACUAGCAAUAUUACGGUUG	-1.36 ± 0.1	-0.299 ± 0.11
AACUAGCAAUAUUACGUACG	-1.15 ± 0.079	-0.237 ± 0.096
AACUAGCAAUAUUACGUAGU	-2.24 ± 0.084	-1.39 ± 0.12
AACUAGCAAUAUUACGUAUA	-2.05 ± 0.11	-0.938 ± 0.12
AACUAGCAAUAUUACGUCAA	-2.66 ± 0.18	-2.13 ± 0.15
AACUAGCAAUAUUACGUCUA	-0.702 ± 0.097	-0.347 ± 0.1
AACUAGCAAUAUUACGUGUA	-2.2 ± 0.09	-0.888 ± 0.09
